Source: patent EP4782541A1 (Nanjing Probio Biotech Co., Ltd., dated 2026)

What was measured:
[1] = molecular target: human ROR1 (on CHO-K1/ROR1 cells and ROR1 tumour cell lines) (human) (UniProt Q01973); experiment: cell-based or functional assay
[2] = molecular target: human ROR1 (on CHO-K1/ROR1 cells and ROR1 tumour cell lines) (human) (UniProt Q01973); experiment: flow cytometry on A375 cells (human ROR1 tumour cell line)
[3] = molecular target: human ROR1 (on CHO-K1/ROR1 cells and ROR1 tumour cell lines) (human) (UniProt Q01973); experiment: flow cytometry on A549 cells (human ROR1 tumour cell line)
[4] = molecular target: human ROR1 (on CHO-K1/ROR1 cells and ROR1 tumour cell lines) (human) (UniProt Q01973); experiment: flow cytometry on PA-1 cells (human ROR1 tumour cell line)
[5] = molecular target: human ROR1 (on CHO-K1/ROR1 cells and ROR1 tumour cell lines) (human) (UniProt Q01973); experiment: flow cytometry on PSN-1 cells (human ROR1 tumour cell line)
[6] = molecular target: T1, human CD3 (on Jurkat cells) (human, UniProt P07766 23-207; P09693 23-182; P04234 22-171); experiment: flow cytometry on Jurkat cells expressing human CD3
T1 construct: whole, on cells

[7] = molecular target: human ROR1 (on CHO-K1/ROR1 cells and ROR1 tumour cell lines) (human) (UniProt Q01973); experiment: flow cytometry on Jeko-1 cells (human ROR1 tumour cell line)
[8] = molecular target: human ROR1 (on CHO-K1/ROR1 cells and ROR1 tumour cell lines) (human) (UniProt Q01973); experiment: flow cytometry on CHO-K1/ROR1 cells overexpressing human ROR1
[9] = molecular target: human ROR1 (on CHO-K1/ROR1 cells and ROR1 tumour cell lines) (human) (UniProt Q01973); experiment: flow cytometry on MDA-MB-231 cells (human ROR1 tumour cell line)
[10] = molecular target: T2, human ROR1 (on CHO-K1/ROR1 cells and ROR1 tumour cell lines) (human, UniProt Q01973 30-937); experiment: flow cytometry on CHO-K1/ROR1 cells overexpressing human ROR1
T2 construct: whole, on cells; also called receptor tyrosine kinase-like orphan receptor 1

[11] = molecular target: T3, human ROR1 protein (human, UniProt Q01973 30-403, limits assumed); experiment: SPR (Biacore 8K); human ROR1 amine-coupled at 0.05 ug/mL as ligand, antibody as analyte
T3 construct: Recombinant antigen of the SPR assay; also called ROR1 (SPR ligand)

[12] = molecular target: T3, human ROR1 protein; experiment: SPR (Biacore 8K); human ROR1 amine-coupled at 0.10 ug/mL as ligand, antibody as analyte
[13] = molecular target: T3, human ROR1 protein; experiment: SPR (Biacore 8K); human ROR1 amine-coupled at 0.50 ug/mL as ligand, antibody as analyte
[14] = molecular target: T3, human ROR1 protein; experiment: SPR (Biacore 8K); human ROR1 amine-coupled at 2.50 ug/mL as ligand, antibody as analyte
[15] = molecular target: T3, human ROR1 protein; experiment: SPR (Biacore 8K); human ROR1 amine-coupled at 12.50 ug/mL as ligand, antibody as analyte
[16] = molecular target: T3, human ROR1 protein; experiment: SPR (Biacore 8K); human ROR1 amine-coupled at 62.50 ug/mL as ligand, antibody as analyte

T3 sequence (Q01973 30-403 limits assumed): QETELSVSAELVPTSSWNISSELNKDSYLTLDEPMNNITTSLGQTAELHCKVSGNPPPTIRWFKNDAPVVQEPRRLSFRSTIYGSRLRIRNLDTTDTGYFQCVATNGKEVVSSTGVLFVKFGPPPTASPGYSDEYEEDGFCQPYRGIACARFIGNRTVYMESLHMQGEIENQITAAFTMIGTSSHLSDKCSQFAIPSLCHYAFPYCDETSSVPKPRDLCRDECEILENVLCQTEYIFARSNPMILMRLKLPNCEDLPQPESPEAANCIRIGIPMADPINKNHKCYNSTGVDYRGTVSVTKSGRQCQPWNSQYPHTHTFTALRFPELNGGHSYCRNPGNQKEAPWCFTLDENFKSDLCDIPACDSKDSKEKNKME
Sequence of human ROR1 (on CHO-K1/ROR1 cells and ROR1 tumour cell lines) (human) (Q01973 30-937): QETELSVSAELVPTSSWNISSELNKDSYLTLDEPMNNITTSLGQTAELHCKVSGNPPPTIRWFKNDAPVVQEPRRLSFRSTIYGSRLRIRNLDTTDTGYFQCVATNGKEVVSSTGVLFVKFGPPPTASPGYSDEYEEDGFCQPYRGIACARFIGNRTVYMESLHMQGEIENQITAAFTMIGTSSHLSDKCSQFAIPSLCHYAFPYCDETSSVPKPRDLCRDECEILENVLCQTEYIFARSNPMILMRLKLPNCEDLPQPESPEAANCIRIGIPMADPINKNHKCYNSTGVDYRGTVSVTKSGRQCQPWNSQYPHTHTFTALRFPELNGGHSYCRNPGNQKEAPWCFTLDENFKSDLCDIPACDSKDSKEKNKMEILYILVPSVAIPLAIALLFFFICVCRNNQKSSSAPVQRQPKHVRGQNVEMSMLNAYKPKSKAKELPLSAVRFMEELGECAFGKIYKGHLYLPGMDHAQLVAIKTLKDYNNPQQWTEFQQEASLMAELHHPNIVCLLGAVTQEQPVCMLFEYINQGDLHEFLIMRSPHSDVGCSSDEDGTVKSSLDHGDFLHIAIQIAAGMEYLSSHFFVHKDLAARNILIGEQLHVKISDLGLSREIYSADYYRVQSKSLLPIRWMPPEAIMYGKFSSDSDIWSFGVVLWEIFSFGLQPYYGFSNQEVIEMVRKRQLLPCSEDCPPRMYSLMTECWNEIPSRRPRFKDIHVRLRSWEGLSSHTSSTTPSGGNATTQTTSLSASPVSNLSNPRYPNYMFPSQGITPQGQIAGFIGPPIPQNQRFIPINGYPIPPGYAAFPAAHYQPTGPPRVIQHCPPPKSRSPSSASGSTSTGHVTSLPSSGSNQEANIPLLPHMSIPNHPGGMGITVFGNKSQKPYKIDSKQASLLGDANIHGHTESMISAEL
T2 sequence (Q01973 30-937): as above
T1 sequence (P07766 23-207, chain 1 of 3): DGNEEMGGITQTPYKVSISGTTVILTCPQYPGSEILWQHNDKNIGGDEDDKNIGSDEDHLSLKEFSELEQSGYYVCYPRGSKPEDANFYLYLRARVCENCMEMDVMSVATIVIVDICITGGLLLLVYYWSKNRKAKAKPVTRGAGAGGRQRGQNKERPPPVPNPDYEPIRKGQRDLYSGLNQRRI
T1 sequence (P09693 23-182, chain 2 of 3): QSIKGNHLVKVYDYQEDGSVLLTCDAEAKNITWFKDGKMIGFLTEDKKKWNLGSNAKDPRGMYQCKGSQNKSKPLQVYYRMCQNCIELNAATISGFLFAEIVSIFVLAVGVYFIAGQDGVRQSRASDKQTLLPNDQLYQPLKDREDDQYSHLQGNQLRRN
T1 sequence (P04234 22-171, chain 3 of 3): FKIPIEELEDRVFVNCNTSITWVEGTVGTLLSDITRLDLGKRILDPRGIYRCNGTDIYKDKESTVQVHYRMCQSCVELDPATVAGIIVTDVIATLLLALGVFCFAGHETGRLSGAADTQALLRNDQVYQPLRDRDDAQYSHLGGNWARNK

**Q.** Which EC50 of T cell activation based on reporter gene (luciferase), target cells A375 [1] does the source give for EMB-07 (bispecific antibody) here?
**A.** The EC50 of T cell activation based on reporter gene (luciferase), target cells A375 was 0.428 nM.

**Q.** And the EC50 of T cell activation based on reporter gene (luciferase), target cells Jeko-1 [1]?
**A.** Its EC50 of T cell activation based on reporter gene (luciferase), target cells Jeko-1 is 0.155 nM.

**Q.** What about the EC50 of T cell activation based on reporter gene (luciferase), target cells MDA-MB-231 [1] of the same molecule?
**A.** The EC50 of T cell activation based on reporter gene (luciferase), target cells MDA-MB-231 was 0.0644 nM.

**Q.** And the EC50 [2]?
**A.** The EC50 was 2.5 nM.

**Q.** And the EC50 [3]?
**A.** The EC50 was 4.01 nM.

**Q.** What about the EC50 [4] of the same molecule?
**A.** The EC50 was 5.06 nM.

**Q.** What about the EC50 [5] of the same molecule?
**A.** Its EC50 is 6.09 nM.

**Q.** What about the EC50 [6] of the same molecule?
**A.** The EC50 was 4.45 nM.

**Q.** What about the EC50 [7] of the same molecule?
**A.** The EC50 was 7.15 nM.

**Q.** And the EC50 [8]?
**A.** Its EC50 is 2.39 nM.

**Q.** And the EC50 [9]?
**A.** Its EC50 is 3.84 nM.

B1: BsAb-9 (bispecific antibody, human IgG1, lambda)
chain: EVQLVESGGGLVQPGGSLRLSCAASGFISRFYAMGWYRQAPGKQRELVARISSMGWTYYADSVKGRFTISIDNSKNTLYLQMNSLRAEDTAVYYCNARNLWGQGTLVTVSSDKTHTCPPCPAPESTRGPSVFLFPPKPKDTLMISRTPEVTCVVVDVSHEDPEVKFNWYVDGVEVHNAKTKPREEQYNSTYRVVSVLTVLHQDWLNGKEYKCKVSNKALPAPIEKTISKAKGQPREPQVCTLPPSRDELTKNQVSLSCAVKGFYPSDIAVEWESNGQPENNYKTTPPVLDSDGSFFLVSKLTVDKSRWQQGNVFSCSVMHEALHNHYTQKSLSLSPGK
heavy: EVQLVESGGGLVQPGGSLRLSCAASGFISRFYAMGWYRQAPGKQRELVARISSMGWTYYADSVKGRFTISIDNSKNTLYLQMNSLRAEDTAVYYCNARNLWGQGTLVTVSSGGGGSGGGGSGGGGSEVQLVESGGGLVQPGRSLRLSCAASGFTFNTYAMNWVRQAPGKGLEWVARIRSKYNNYATYYADSVKDRFTISRDDSKSIAYLQMNSLKTEDTAVYYCVRHGNFGNSYVSWFAYWGQGTLVTVSSASTKGPSVFPLAPSSKSTSGGTAALGCLVKDYFPEPVTVSWNSGALTSGVHTFPAVLQSSGLYSLSSVVTVPSSSLGTQTYICNVNHKPSNTKVDKKVEPKSCDKTHTCPPCPAPESTRGPSVFLFPPKPKDTLMISRTPEVTCVVVDVSHEDPEVKFNWYVDGVEVHNAKTKPREEQYNSTYRVVSVLTVLHQDWLNGKEYKCKVSNKALPAPIEKTISKAKGQPREPQVYTLPPCRDELTKNQVSLWCLVKGFYPSDIAVEWESNGQPENNYKTTPPVLDSDGSFFLYSKLTVDKSRWQQGNVFSCSVMHEALHNHYTQKSLSLSPGK
light: QTVVTQEPSLTVSPGGTVTLTCRSSTGAVTTSNYANWVQQKPGQAPRGLIGGTNKRAPGVPARFSGSLLGGKAALTLSGVQPEDEAEYFCALWYSNLWVFGGGTKLTVLGQPKAAPSVTLFPPSSEELQANKATLVCLISDFYPGAVTVAWKADSSPVKAGVETTTPSKQSNNKYAASSYLSLTPEQWKSHRSYSCQVTHEGSTVEKTVAPTECS
notes: also called BsAb-09
**Q.** With B1 as the molecule, how does the EC50 [6] read?
**A.** The EC50 was 1.38 nM.

**Q.** And the EC50 [10]?
**A.** The EC50 was 0.0864 nM.

**Q.** What about the Kd [11] of the same molecule?
**A.** Its Kd is 0.0811 nM.

**Q.** What about the koff [11] of the same molecule?
**A.** Its koff is 0.00143 s⁻¹.

**Q.** And the kon [11]?
**A.** The kon was 1.76e+07 M⁻¹ s⁻¹.

**Q.** And the Kd [12]?
**A.** The Kd was 0.0497 nM.

**Q.** And the koff [12]?
**A.** The koff was 0.00113 s⁻¹.

**Q.** And the kon [12]?
**A.** The kon was 2.28e+07 M⁻¹ s⁻¹.

**Q.** And the Kd [13]?
**A.** Its Kd is 0.0216 nM.

**Q.** And the koff [13]?
**A.** Its koff is 0.00083 s⁻¹.

**Q.** What about the kon [13] of the same molecule?
**A.** The kon was 3.85e+07 M⁻¹ s⁻¹.

**Q.** And the Kd [14]?
**A.** Its Kd is 0.0129 nM.

**Q.** What about the koff [14] of the same molecule?
**A.** Its koff is 0.000521 s⁻¹.

**Q.** What about the kon [14] of the same molecule?
**A.** The kon was 4.05e+07 M⁻¹ s⁻¹.

**Q.** And the Kd [15]?
**A.** The Kd was 0.00664 nM.

**Q.** What about the koff [15] of the same molecule?
**A.** The koff was 0.000242 s⁻¹.

**Q.** And the kon [15]?
**A.** Its kon is 3.65e+07 M⁻¹ s⁻¹.

**Q.** And the Kd [16]?
**A.** Its Kd is 0.00682 nM.

**Q.** What about the koff [16] of the same molecule?
**A.** Its koff is 0.000187 s⁻¹.

**Q.** And the kon [16]?
**A.** Its kon is 2.73e+07 M⁻¹ s⁻¹.

B2: BsAb-5 (bispecific antibody, human IgG1, lambda)
chain: EVQLVESGGGLVQPGGSLRLSCAASGFISRFYAMGWYRQAPGKQRELVARISSMGWTYYADSVKGRFTISIDNSKNTLYLQMNSLRAEDTAVYYCNARNLWGQGTLVTVSSGGGGSGGGGSGGGGSEVQLVESGGGLVQPGGSLRLSCAASGFISRFYAMGWYRQAPGKQRELVARISSMGWTYYADSVKGRFTISIDNSKNTLYLQMNSLRAEDTAVYYCNARNLWGQGTLVTVSSDKTHTCPPCPAPESTRGPSVFLFPPKPKDTLMISRTPEVTCVVVDVSHEDPEVKFNWYVDGVEVHNAKTKPREEQYNSTYRVVSVLTVLHQDWLNGKEYKCKVSNKALPAPIEKTISKAKGQPREPQVCTLPPSRDELTKNQVSLSCAVKGFYPSDIAVEWESNGQPENNYKTTPPVLDSDGSFFLVSKLTVDKSRWQQGNVFSCSVMHEALHNHYTQKSLSLSPGK
heavy: EVQLVESGGGLVQPGRSLRLSCAASGFTFNTYAMNWVRQAPGKGLEWVARIRSKYNNYATYYADSVKDRFTISRDDSKSIAYLQMNSLKTEDTAVYYCVRHGNFGNSYVSWFAYWGQGTLVTVSSASTKGPSVFPLAPSSKSTSGGTAALGCLVKDYFPEPVTVSWNSGALTSGVHTFPAVLQSSGLYSLSSVVTVPSSSLGTQTYICNVNHKPSNTKVDKKVEPKSCDKTHTCPPCPAPESTRGPSVFLFPPKPKDTLMISRTPEVTCVVVDVSHEDPEVKFNWYVDGVEVHNAKTKPREEQYNSTYRVVSVLTVLHQDWLNGKEYKCKVSNKALPAPIEKTISKAKGQPREPQVYTLPPCRDELTKNQVSLWCLVKGFYPSDIAVEWESNGQPENNYKTTPPVLDSDGSFFLYSKLTVDKSRWQQGNVFSCSVMHEALHNHYTQKSLSLSPGK
light: B1 light
notes: also called BsAb-05
**Q.** Which EC50 [6] does the source give for B2 here?
**A.** Its EC50 is 0.913 nM.

**Q.** What about the EC50 [10] of the same molecule?
**A.** The EC50 was 0.109 nM.

B3: BsAb-4 (bispecific antibody, human IgG1, lambda)
chain: EVQLVESGGGLVQPGGSLRLSCAASGRSFSSFQMGWFRQAPGKEREFVAASGWSGGPTYYWDSVIGRFTISTDNSKNTLYLQMNSLRAEDTAVYYCYEDRVLSGRPVRYWGQGTLVTVSSDKTHTCPPCPAPESTRGPSVFLFPPKPKDTLMISRTPEVTCVVVDVSHEDPEVKFNWYVDGVEVHNAKTKPREEQYNSTYRVVSVLTVLHQDWLNGKEYKCKVSNKALPAPIEKTISKAKGQPREPQVCTLPPSRDELTKNQVSLSCAVKGFYPSDIAVEWESNGQPENNYKTTPPVLDSDGSFFLVSKLTVDKSRWQQGNVFSCSVMHEALHNHYTQKSLSLSPGK
heavy: B2 heavy
light: B1 light
notes: also called BsAb-04
**Q.** Which results are given for B3?
**A.** EC50 [6]: 0.629 nM; EC50 [10]: 0.373 nM
